Assay results taken from patent US20240026407A1, “MODIFICATION OF SAPONINS” (GLAXOSMITHKLINE BIOLOGICALS SA, priority 2020, published 2024).

B1: 1054 (protein, listed as Streptosporangium roseum)
chain: MEQAVAAALAVTDLRMDGRTEPLGLGESAPRFSWRLAAPGRGRAQSAYRIVVGRECDPLAEGAEVLWDTGEVGSSRTFDIAYEGAELRPRTRYQWRARAADEAGTWGDWSPAHWFETGLGDVTGWTADWIGTPAVPGSQRLPSLENVPRIWAAGPLGPSEARTGGFRTRFTVPGGARPLSAWLVIGGALDPQVHLNGMPVAGEVRDGAFVADAGDLIDSGENVLALRAGAVDGLPGGLCVRLEVVLEGRPALPQLVPVAGESAVTVTSDGRWRAAGEPAPGFEQPGFDDTGWSLAEEVGLHGDPPRGREPVADRPSPYLRREFDVPRPVSRARLYATALGVYELHLNGMRVSADHLAPGWTDYRHRVTYQTYDVTALVAEGGNALGAVLADGWYAGNISWFGSFQYGRRLALRAELEIVHDDGTTTRLRTDSDWRAGSGAIRYADLQNGERQDLAAEPVGWTACGFDDSGWLPAVPVSPPAGRPAAAVAPPVRVHEELAPRAVWESSPGVWIADFGQNVVGWVRLTARAGRDRPVVLRHAEVLDHEGALHLANLRSARATDEFLPRGGAGAETFEPRFTFHGFRYVEVSGLREPLTSDAIRARVAYAAMEPAGEFACSDERLNRLQGNIVRGQRGNFLSIPTDCPQRDERLGWTGDIWAFAPTALFNYDARAFLHSWLTDVVDAQAEDGAVTHVVPDVLSGRGLSPNPREAGSPGWGDAIVMLPWALYRLCGDADAVARYYGPMRRWLAYLDSRSTDGIFPDEGFGDWLSIGADTPKRLVGTAIFALSARQLAELAAALGRADDERACLEVYARVRRAFRAAFVQGPGVVESGTQTAYVLAITAGLLEEAELPRAAARLVRDIEARGGHLSTGFLGTPFLLDALTRSGHLGTAYRLLLQESFPSWLYPVVHGDATTMWERWDGWSHHRGLQDPGMNSFNHYAYGAVGAWMYETIGGLAPASPGYRAIVVRPRPGGELTWARTAYRTRHGRVEIAWRREGGDFTLEVRVPPNTRAEVWVPGGPAGVTESGRPAAESPGVALDRVVDGHAVYEVGSGSYAFHV
B2: 1063 (protein, listed as Parabacteroides distasonis)
chain: MNNKINDATMRIKQSIYIYAFAALLLGGCKSNNELTIPTNLRTEYLTEPIGLDTSSPRFTWEYSGNEEGFKASRYEVRIGTSPDDLRPYAEGMALKPHTRYYWNVTVWDGEGRPCATSETASFETAKFDPSDWSASWITDHKDKEFEPAPLFRKSFPVGKEVKDARVYVASAGYHELFINGERVGTNYLDPGYTHFDKRILYVTHDVTSLLKQGDNAVAAVLGNGWYNEQSVAVWNFHEARWRDRPRLLCELRITYTDGTTEVIGSDETWKTSTGAYTYNNIYSGDKFDARLEEAGWKTAHFDDSKWEAALPAQAPAPLLVAQQMPGIRITEEVRPVSMKRFSDQLYVYSFPKNMSGLCRLKVKGEAGTRITLKHGELLKKDGRLEQGNINVYYHPVKPDEVFQMDVFTLKGTGEEEIFMPSFSYHGFQYVEVESSRPVTLTEENLTGLFMHTDVRPSGSFACSNPLLNKIWEATMQAYRSNLHSIPTDCPQREKNGWTADAHIAIDLGLLGFDGITLYEKWMDDIIDNQREAGEISGIIPSSGWGYGEWPGPVWDAVMFIIPNALYDYYGESRSIERLYPTMLRYLDYLKTKEKDGYLPFGLGDWVYWKATTNNEYTSTAYYYLDYKLMARFASLLGKDAAPYQEKANTLKSLINQKFFNAETGVYAEGTQTAQALALYLGLVPEGKEQLVADKLREVVAGNNYFLDFGLLGSKTVPAMLTKYGYIEDAMKMITKTEAPSWGYWVETMGYSTLPETWTLSPKFADASLNHVFMGDVSAWMMNQLAGINHDDSAPGFRHIRITPHFVKELDWAKGEYHSVRGRIASEWKREGDKVMLTVTIPADCSADIVVGDQTETVSAGTHTFTYPA
B3: 1046 (protein)
chain: MQYWQKQLKFTSIILLSGLTLGGITACAEQDIAQLQNVEAEPSPVEQEAQTSLATSFKHPPHEAKPLTWLHAMSGNMSKAGLTKDLEAIAEAGLGGTMLFNVTQGIPLGKVKFNSTEHIDLIGHLAAESQRLGLSFGMHNCDGWTSSGGPWVTPEHSMKQITYNETIVDGGNVNIKLAQPATMLDYYQDIAVIAYPSLATEITDFTVKPKITASDANFDAQIVQNNNLTDYSSITPSNEQPGWLQFSYQQPYTLRLIDMLLHSGRGLNVSLHISDDGKNFKQVDNLTLRRPGKSTYAFDEAFAGYTAKHFRLVSNKVMHIKELRLSSTPSLDNFSGRTAASRSDYQEFEDIGKPSAELVIDPESVINLTASLNSEGQLITTLPAGKWTIMRFGYTSTGAVNIPASREGTGLEVDKFSKAAFKSHYDAYITNVIDKLKVVAPNALYSIEIDSYEVGAQNWTHNYEQLFQAQFGYDLVPFLPLFAGKFVESPTVAEAVLWDTRDLNNKLITENYYGYFRELAHQDGIKTYLEPYGSGPFNELDVASKADLPMGEFWLDNNNFRLSASASAAHIYNKPIVAAEAFTQFPRNNWLFHPAEGKADSDKSWALGVNQHVFHRFAHQANTHVMPGMTMNRWGAHMDRTQTWWTVAGKPWFKYVARGQQLLRTGHNVADVLWFLGDATPTTCPEKDPISAVLPLNINYDCLNSEVLQRLSVEDGKVTLPHGSQYKILVLNNHQTLTLKSLKKIYQLAQQGAVIVGTPVEQLAGRFVSEQQRQELKMMVDYIWSQPTTYNISTKAKTSHGHTGVFPTHEIAKTSKIDWQKIYNEQNWPLDLAIKNADKFYFTHRRSAQYDIYFIFNDSAQAQVFDARFNISGKIPELWDADTGNITQLGAFSDNGQITRVPLKLGAYDSVFVVFEKSSKAVTALKPEFVLSQPELDVVLDAQQQPKVIKTTHEAIEITGAWQVEFDKFYGLDKSFTFEQLIDWKLHPEQTIQDYSGTATYQKTIDVPAELLADNKQIFLDLGKVKVAANVYLNDKLAGSAWHAPYRIDISNFVQAGKNKLTIKVANLWVNRLLADRKLPDTSGFKIARWQNPITPMPQWYVDNQPAPKSERVTFVTQVFMDDNEPRQSSGLIGPVQLSVRSKTQL
modifications: Catenovulum agarivorans
B4: 1015 (protein)
chain: MITIIGLGVEHSERGCVTDNPHPRFSYAVRSDRSDVVVDGARLAVGDWTCEAGDQTAVAYDGKPLEPFTEYHVTLDVSTADGEHAHAETTFETGRLGQGWQGRWISDAGYDFVEKKVSPVPMMFRKPFTCDPTKSVRKARLYATAMGVYDFACDGKRIGDRYFAPGFTSYKTNLQYQTYDVTDMVGAGAVHTLLATVAGGWAVGSFVFTRKNRVSADRQALLAELRIEYTDGSVEVIGTDASWEVSESGPVRMADLYDGETYDAMMDPGADGSRCKDWRHASLENPRSRPRHIEADYGAGVVAHETLSPVSVARRAGGELVYDFGQNLAGVVRMRIANGRAGQTVVVRHAEILNPDGSLNTAFLRTAKATATYRCADADGFPEGVQEYGPRFTYMGFRYVSVRGVAEDDLRIEAVVLHSDLRPIGDFACSDERLNQLQHNIVWGAKSNLMDIPTDCPQRDERMGWTGDIAVFAPTACLNFDMSRFLEKWLRDVKAEQLKTGGIPNTVPVQGYGFPATMPEMAIDWWGDACVLVPWAVYRSSGDATVLHDMYDTMKRYVKACRFWAGLIGFGKSRYIWNTPSMLHFGDWVAPDVPKMSQWQKRAKWTATASLNNTSRTLARVAEVLGYDEDARAYDELADKVADAYCSVLTDGNGRLDNEFQTGYVLPLYLNMFPETVRGNAVDHLVKLIEDNDYCIGTGFPGTPYILFALADNGREDVAYRMLLNTACPSWLYEVGMGATTIWERWDGLDENGECPIGDDGTDLMISYNHYASGAVGAFLYQRVAGIEAIGAAYRSFRVRPVLGGGLTWAKAHVDTPYGRVGSAWSLDGGRFSITVEVPVGTTCELALPDGTTMQLSNGVHTATCEM
modifications: Bifidobacterium moukalabense

test: Experiment 6-1: screening of rhamnosidases for derhamnosylation of saponins in treated bark extract (2%), QS-17 2310 to QS-18 2164 (PAR %); type: biochemical, Quillaja saponaria; conditions: TBE 2%, pH 7.5, 30 degC, 18 h; TIC peak area ratio percent, LCMS/MS; negative controls 3.061, 2.429

| Molecule | Peak57 (PAR %) [%] |
| --- | --- |
| B1 | 2.487 |
| B2 | 2.473 |
| B3 | 2.480 |
| B4 | 3.048 |

test: Experiment 6-1: screening of rhamnosidases for derhamnosylation of saponins in treated bark extract (2%), QS-17 2296 to QS-18 2150 (PAR %); type: biochemical, Quillaja saponaria; conditions: TBE 2%, pH 7.5, 30 degC, 18 h; TIC peak area ratio percent of rhamnosylated starting saponin to derhamnosylated product, LCMS/MS; negative controls 4.876, 5.225

| Molecule | QS-17 (PAR %) [%] |
| --- | --- |
| B1 | 4.348 |
| B2 | 4.201 |
| B3 | 4.051 |
| B4 | 4.132 |

test: Experiment 6-1: screening of rhamnosidases for derhamnosylation of saponins in treated bark extract (2%), desglucosyl-QS-17 2134 to QS-21 1988 (PAR %); type: biochemical, Quillaja saponaria; conditions: TBE 2%, pH 7.5, 30 degC, 18 h; TIC peak area ratio percent, LCMS/MS; negative controls 2.719, 2.158

| Molecule | Peak75 (PAR %) [%] |
| --- | --- |
| B1 | 2.160 |
| B2 | 2.240 |
| B3 | 2.446 |
| B4 | 2.969 |

test: Experiment 6-1: specificity of rhamnosidases towards other rhamnose residues (C3 saccharide rhamnose, C28 saccharide rhamnose); type: biochemical, Quillaja saponaria; conditions: TBE 2%, pH 7.5, 30 degC, 18 h; LCMS/MS; negative controls 0.18, 0.17

| Molecule | ratio PP/QS-21 |
| --- | --- |
| B1 | 0.17 |
| B2 | 0.17 |
| B3 | 0.13 |
| B4 | 0.15 |
